T1: Eps15IDR (Eps15's own intrinsically disordered region) (human, UniProt P42566 481-896)
T1 construct: Eps15, UniProt P42566, C-terminal intrinsically disordered region; limits 481-896 from the N-terminal residues 481-521, the overlapping stretches 481-581 to 761-896 and the primer names Eps15_481_Nde1_fw and Eps15_896_Not1_rv; in pET28-6His-GB1; 15N-labelled where it was the observed protein; source: E. coli Rosetta (DE3), purified (nickel column, TEV cleavage, SEC); not shown: 6His, N-terminal, …
T1 sequence (looked up): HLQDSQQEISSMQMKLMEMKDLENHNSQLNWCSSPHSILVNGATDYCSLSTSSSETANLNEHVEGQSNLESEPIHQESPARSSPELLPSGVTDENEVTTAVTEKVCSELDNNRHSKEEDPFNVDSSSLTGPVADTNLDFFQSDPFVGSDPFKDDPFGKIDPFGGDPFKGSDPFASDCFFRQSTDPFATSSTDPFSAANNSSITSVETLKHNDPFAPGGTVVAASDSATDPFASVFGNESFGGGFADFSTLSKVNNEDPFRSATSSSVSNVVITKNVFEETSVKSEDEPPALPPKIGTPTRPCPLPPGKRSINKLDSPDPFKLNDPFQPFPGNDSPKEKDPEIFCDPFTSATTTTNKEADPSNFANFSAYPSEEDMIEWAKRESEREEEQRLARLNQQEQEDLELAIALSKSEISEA

B1: Dab2_(320–495) (domain or fragment, UniProt P98082 320-495, looked up)
chain: KKENSSSSSTPLSNGPLNGDVDYFGQQFDQISNRTGKQEAQAGPWPFSSSQTQPAVRTQNGVSEREQNGFSVKSSPNPFVGSPPKGLSIQNGVKQDLESSVQSSPHDSIAIIPPPQSTKPGRGRRTAKSSANDLLASDIFAPPVSEPSGQASPTGQPTALQPNPLDLFKTSAPAPV
notes: gene bought from Twist Bioscience, in pET28a; 15N-labelled where it was the observed protein; The S328C mutant was used only for microscopy of droplets and is not written; also called Dab2 fragment; source: E. coli Rosetta (DE3), purified (nickel column, SEC); not shown: His-tag, C-terminal, kept
B2: Eps15 EH123 (EH1-EH2-EH3, the full EH-domain containing region) (domain or fragment, human, UniProt P42566 1-310, looked up)
chain: MAAAAQLSLTQLSSGNPVYEKYYRQVDTGNTGRVLASDAAAFLKKSGLPDLILGKIWDLADTDGKGILNKQEFFVALRLVACAQNGLEVSLSSLNLAVPPPRFHDTSSPLLISGTSAAELPWAVKPEDKAKYDAIFDSLSPVNGFLSGDKVKPVLLNSKLPVDILGRVWELSDIDHDGMLDRDEFAVAMFLVYCALEKEPVPMSLPPALVPPSKRKTWVVSPAEKAKYDEIFLKTDKDMDGFVSGLEVREIFLKTGLPSTLLAHIWSLCDTKDCGKLSKDQFALAFHLISQKLIKGIDPPHVLTPEMIPP
notes: Eps15, UniProt P42566, the three N-terminal EH domains in row; in pET28-6His-GB1; 15N-labelled where it was the observed protein; source: E. coli Rosetta (DE3), purified (nickel column, TEV cleavage, SEC); not shown: 6His, N-terminal, cleaved; GB1, N-terminal, cleaved
B3: Eps15 EH2 domain (domain or fragment, human, UniProt P42566 121-215, looked up)
chain: PWAVKPEDKAKYDAIFDSLSPVNGFLSGDKVKPVLLNSKLPVDILGRVWELSDIDHDGMLDRDEFAVAMFLVYCALEKEPVPMSLPPALVPPSKR
notes: Eps15, UniProt P42566, second EH domain; in pET41c; The NdeI primer puts a start methionine before P121; non-cleavable C-terminal His-tag from pET41c; 15N-labelled where it was the observed protein; source: E. coli Rosetta (DE3), purified (nickel column, SEC); not shown: His-tag, C-terminal, kept

Columns and labels:
Details in all cases: both partners purified
[1] = molecular target: B2; assay: NMR titration; competition: equimolar EH123, Eps15IDR and Dab2(320-495) together, observed in turn on 15N EH123, 15N Eps15IDR and 15N Dab2(320-495); NMR buffer pH 6, 25 °C
[2] = molecular target: T1, Eps15IDR (Eps15's own intrinsically …); assay: NMR titration; equimolar unlabelled Eps15IDR (200 µM) added to 200 µM 15N EH123; 1H-15N TROSY-HSQC CSPs and R1rho at 1200 MHz; NMR buffer pH 6, 25 °C
Dab2_(320–495) = molecular target: B1; assay: NMR CPMG relaxation dispersion; 100 µM 15N Dab2(320-495) with 10 µM (10%) EH2; 600 and 900 MHz; 12 residues of helixN and the NPF motif fitted globally, two-site exchange model (ChemEx); NMR buffer pH 6, 25 °C

## B1
[1]
  binding result: binds

## B2
[2]
  binding result: binds

## B3
Dab2_(320–495)
  Kd: 196 µM

— article PMC12370899, “Promiscuous and multivalent interactions between Eps15 and partner protein Dab2 generate a complex interaction network” (Nature Communications, 2025)
